Consider two molecules from PMC5127644, “SPRTN is a mammalian DNA-binding metalloprotease that resolves DNA-protein crosslinks”.

The target of one series is T1, SPRTN-∆C (a.a. 1-216) (Homo sapiens, UniProt Q9H040 1-216).
T1 sequence: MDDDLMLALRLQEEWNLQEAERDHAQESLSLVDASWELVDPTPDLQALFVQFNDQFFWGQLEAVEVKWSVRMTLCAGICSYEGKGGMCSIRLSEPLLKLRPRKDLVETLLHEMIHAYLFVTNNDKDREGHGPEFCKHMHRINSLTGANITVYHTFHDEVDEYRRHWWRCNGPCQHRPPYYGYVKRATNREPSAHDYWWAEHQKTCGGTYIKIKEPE
The experiment in a line: EMSA; 5 uM ZnSO4; EMSA: 10 mM Tris-HCl pH 7.5, 0.2 mM DTT, 5 uM ZnSO4, 0.25 uM DNA, 30 uL, 30 min at 20 C, 1.5% agarose gel. Conditions: protein: recombinant, tags: His tag (pNIC28-Bsa4), TEV-cleaved (E. coli). On the technique in general: Mobility shift assays separate free from complexed probe on a gel.

The target in the next series is T2, SPRTN full length (Homo sapiens, UniProt Q9H040 1-489).
T2 sequence: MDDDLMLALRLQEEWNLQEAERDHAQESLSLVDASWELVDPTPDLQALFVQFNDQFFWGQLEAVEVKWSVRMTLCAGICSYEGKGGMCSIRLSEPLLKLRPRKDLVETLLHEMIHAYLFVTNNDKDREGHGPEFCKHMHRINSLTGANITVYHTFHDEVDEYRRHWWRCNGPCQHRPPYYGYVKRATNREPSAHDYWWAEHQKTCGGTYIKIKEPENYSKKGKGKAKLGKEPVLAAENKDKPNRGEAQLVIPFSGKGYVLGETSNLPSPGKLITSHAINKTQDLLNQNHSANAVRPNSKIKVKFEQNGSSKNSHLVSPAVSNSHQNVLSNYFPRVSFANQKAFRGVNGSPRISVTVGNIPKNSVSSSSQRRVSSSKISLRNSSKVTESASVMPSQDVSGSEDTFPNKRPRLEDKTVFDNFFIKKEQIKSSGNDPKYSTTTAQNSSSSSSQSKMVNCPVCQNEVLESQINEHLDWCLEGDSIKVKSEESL
The description is as above. Conditions: protein: recombinant, tags: Z-basic-His tag, TEV-cleaved (E. coli, pNIC-ZB).

Setting [1] is: label: 6-FAM (5' as drawn), single strand.
Where [2] appears, read: label: 6-FAM on strand 1, blunt.

B1: 6-FAM-ssODN 39-mer (ssDNA)
DNA: GCGCGCCCATTGATACTAAATTCAAGGATGACTTATTTC
Consider B1, for which the binding result is given as “no binding” with SPRTN-∆C (a.a. 1-216) (setting [1]) and “binds” with SPRTN full length (setting [1]).

B2: 6-FAM-dsODN 39-mer (dsDNA)
DNA 1: B1 DNA
DNA 2: GAAATAAGTCATCCTTGAATTTAGTATCAATGGGCGCGC
For B2, the binding result with SPRTN-∆C (a.a. 1-216) (setting [2]) is recorded as “no binding”; with SPRTN full length (setting [2]), “binds”.
